The source of these data is the Human Domainome abundance scans (Beltran et al. 2025).

The labels stand for the following.
B1: Far upstream element-binding protein 1, residues 98 to 169; numbered along this chain, Q96AE4 (parent)
chain: RSVMTEEYKVPDGMVGFIIGRGGEQISRIQQESGCKIQIAPDSGGLPERSCMLTGTPESVQSAKRLLDQIVE

± gives the uncertainty stated by the source.

The variants in this data set derive from B1. Briefly: abundance fitness (aPCA) (normalised: wild type 0, dead -1); higher = more abundant; growth selection in yeast, the domain comes from the species named. To be noted: Homo sapiens.
With RSVMTEEYKVPDGMVGFIIGRGGEQISRIQQESGCKIQIAPDSGGLEERSCMLTGTPESVQSAKRLLDQIVE, the abundance fitness is -0.025 ± 0.036.

With RSVMTEEYKVPDGMVGFIIGRGGEQISRIQQESGCKIQIAPDSGGLRERSCMLTGTPESVQSAKRLLDQIVE, the abundance fitness was -0.054 ± 0.024. RSVMTEEYKVPDGMVGFIIGRGGEQISRIQQESGCKIQIAPDSGGLGERSCMLTGTPESVQSAKRLLDQIVE: the abundance fitness is -0.019 ± 0.027. With RSVMTEEYKVPDGMVGFIIGRGGEQISRIQQESGCKIQIAPDSGGLSERSCMLTGTPESVQSAKRLLDQIVE the figure was -0.014 ± 0.031. Take RSVMTEEYKVPDGMVGFIIGRGGEQISRIQQESGCKIQIAPDSGGLDERSCMLTGTPESVQSAKRLLDQIVE: the abundance fitness was -0.007 ± 0.042. Turning to RSVMTEEYKVPDGMVGFIIGRGGEQISRIQQESGCKIQIAPDSGGLQERSCMLTGTPESVQSAKRLLDQIVE, the abundance fitness came to 0.019 ± 0.038. With RSVMTEEYKVPDGMVGFIIGRGGEQISRIQQESGCKIQIAPDSGGLTERSCMLTGTPESVQSAKRLLDQIVE the figure was -0.007 ± 0.033; with RSVMTEEYKVPDGMVGFIIGRGGEQISRIQQESGCKIQIAPDSGGLVERSCMLTGTPESVQSAKRLLDQIVE, -0.038 ± 0.029. For RSVMTEEYKVPDGMVGFIIGRGGEQISRIQQESGCKIQIAPDSGGLLERSCMLTGTPESVQSAKRLLDQIVE, the abundance fitness was -0.02 ± 0.03. Regarding RSVMTEEYKVPDGMVGFIIGRGGEQISRIQQESGCKIQIAPDSGGLFERSCMLTGTPESVQSAKRLLDQIVE, the abundance fitness is -0.084 ± 0.052.

As to RSVMTEEYKVPDGMVGFIIGRGGEQISRIQQESGCKIQIAPDSGGLMERSCMLTGTPESVQSAKRLLDQIVE, the abundance fitness is -0.088 ± 0.035. As for RSVMTEEYKVPDGMVGFIIGRGGEQISRIQQESGCKIQIAPDSGGLKERSCMLTGTPESVQSAKRLLDQIVE, the abundance fitness was -0.004 ± 0.04. Regarding RSVMTEEYKVPDGMVGFIIGRGGEQISRIQQESGCKIQIAPDSGGLAERSCMLTGTPESVQSAKRLLDQIVE, the abundance fitness was -0.012 ± 0.031.

As to RSVMTEEYKVPDGMVGFIIGRGGEQISRIQQESGCKIQIAPDSGGLIERSCMLTGTPESVQSAKRLLDQIVE, the abundance fitness is -0.049 ± 0.051. As for RSVMTEEYKVPDGMVGFIIGRGGEQISRIQQESGCKIQIAPDSGGLCERSCMLTGTPESVQSAKRLLDQIVE, the abundance fitness was -0.061 ± 0.041. With RSVMTEEYKVPDGMVGFIIGRGGEQISRIQQESGCKIQIAPDSGGLHERSCMLTGTPESVQSAKRLLDQIVE, the abundance fitness was -0.052 ± 0.045. With RSVMTEEYKVPDGMVGFIIGRGGEQISRIQQESGCKIQIAPDSGGLNERSCMLTGTPESVQSAKRLLDQIVE the figure was -0.012 ± 0.052; with RSVMTEEYKVPDGMVGFIIGRGGEQISRIQQESGCKIQIAPDSGVLPERSCMLTGTPESVQSAKRLLDQIVE, -0.111 ± 0.029.

As to RSVMTEEYKVPDGMVGFIIGRGGEQISRIQQESGCKIQIAPDSGSLPERSCMLTGTPESVQSAKRLLDQIVE, the abundance fitness is -0.027 ± 0.03.

RSVMTEEYKVPDGMVGFIIGRGGEQISRIQQESGCKIQIAPDSGTLPERSCMLTGTPESVQSAKRLLDQIVE: the abundance fitness is -0.074 ± 0.036.

As to RSVMTEEYKVPDGMVGFIIGRGGEQISRIQQESGCKIQIAPDSGYLPERSCMLTGTPESVQSAKRLLDQIVE, the abundance fitness is -0.095 ± 0.048. With RSVMTEEYKVPDGMVGFIIGRGGEQISRIQQESGCKIQIAPDSGWLPERSCMLTGTPESVQSAKRLLDQIVE, the abundance fitness was -0.166 ± 0.036. With RSVMTEEYKVPDGMVGFIIGRGGEQISRIQQESGCKIQIAPDSGGIPERSCMLTGTPESVQSAKRLLDQIVE the figure was -0.092 ± 0.049; with RSVMTEEYKVPDGMVGFIIGRGGEQISRIQQESGCKIQIAPDSGGFPERSCMLTGTPESVQSAKRLLDQIVE, -0.004 ± 0.052.

As for RSVMTEEYKVPDGMVGFIIGRGGEQISRIQQESGCKIQIAPDSGGTPERSCMLTGTPESVQSAKRLLDQIVE, the abundance fitness was -0.006 ± 0.037. For the variant RSVMTEEYKVPDGMVGFIIGRGGEQISRIQQESGCKIQIAPDSGGGPERSCMLTGTPESVQSAKRLLDQIVE, the abundance fitness was -0.01 ± 0.025. In the case of RSVMTEEYKVPDGMVGFIIGRGGEQISRIQQESGCKIQIAPDSGGWPERSCMLTGTPESVQSAKRLLDQIVE, the abundance fitness was -0.132 ± 0.031. As for RSVMTEEYKVPDGMVGFIIGRGGEQISRIQQESGCKIQIAPDSGGEPERSCMLTGTPESVQSAKRLLDQIVE, the abundance fitness is 0.016 ± 0.034. For RSVMTEEYKVPDGMVGFIIGRGGEQISRIQQESGCKIQIAPDSGGPPERSCMLTGTPESVQSAKRLLDQIVE the value was -0.124 ± 0.037. On to RSVMTEEYKVPDGMVGFIIGRGGEQISRIQQESGCKIQIAPDSGGCPERSCMLTGTPESVQSAKRLLDQIVE, for which the abundance fitness was -0.026 ± 0.038. Take RSVMTEEYKVPDGMVGFIIGRGGEQISRIQQESGCKIQIAPDSGGDPERSCMLTGTPESVQSAKRLLDQIVE: the abundance fitness was -0.006 ± 0.046.

For RSVMTEEYKVPDGMVGFIIGRGGEQISRIQQESGCKIQIAPDSGGRPERSCMLTGTPESVQSAKRLLDQIVE, the abundance fitness is -0.006 ± 0.025.

Regarding RSVMTEEYKVPDGMVGFIIGRGGEQISRIQQESGCKIQIAPDSGGMPERSCMLTGTPESVQSAKRLLDQIVE, the abundance fitness is -0.031 ± 0.036. With RSVMTEEYKVPDGMVGFIIGRGGEQISRIQQESGCKIQIAPDSGGQPERSCMLTGTPESVQSAKRLLDQIVE, the abundance fitness was -0.001 ± 0.042.

As to RSVMTEEYKVPDGMVGFIIGRGGEQISRIQQESGCKIQIAPDSGGHPERSCMLTGTPESVQSAKRLLDQIVE, the abundance fitness was -0.011 ± 0.058. Consider RSVMTEEYKVPDGMVGFIIGRGGEQISRIQQESGCKIQIAPDSGGYPERSCMLTGTPESVQSAKRLLDQIVE, for which the abundance fitness is -0.093 ± 0.049. With RSVMTEEYKVPDGMVGFIIGRGGEQISRIQQESGCKIQIAPDSGGNPERSCMLTGTPESVQSAKRLLDQIVE the figure was -0.023 ± 0.055. For RSVMTEEYKVPDGMVGFIIGRGGEQISRIQQESGCKIQIAPDSGGKPERSCMLTGTPESVQSAKRLLDQIVE the value was -0.006 ± 0.037.
